{"source": "patent US20240301052A1", "about": "(LANOVA MEDICINES DEVELOPMENT, published 2024)", "binders": {"B1": {"name": "xi87H12B7 hIgG1 (antibody, V domains shown)", "VH": "QVQLQQPGAEVVRPGASVKMSCKASGYTFTSYIVHWVKQPPGQGLEWIGAIYPGNGDTSYIQKFKGRATLTADKSSSTVYMQLSSLTSEDSAVYYCARGHYYGSAAWFGFWGQGTLVTVSA", "VL": "DILLTQSPAILSVSPGERVSFSCRASQNIGTSIHWYQQRTNDSPRLLMRYASESVSGIPSRFSGSGSGTDFTLSINSVESEDIADYYCQQSNTWPLTFGAGTKLELK", "notes": "chimeric, hIgG1"}, "B2": {"name": "xi94E9B12 hIgG1 (antibody, V domains shown)", "VH": "QVQLQQPGAELVKPGASVKMSCKASGYTFTSYNMQWVKQTYGQGLEWIGAISPGSGETSYNQNFKVKATLTADKISSTAYMQLSSLTSEDSAVYYCARAARAEGWFAYWGQGTLVTVSA", "VL": "DIVMTQSHKFMSTSVGDRVSITCKASQDVGHAVVWYQQKPGQFPKLLIYWASTRHAGVPDRFTGSGSGTDFTLTISNVQSEDLADYFCQQFRSIPLTFGSGTKLEIK", "notes": "chimeric, hIgG1"}, "B3": {"name": "xi69B11D8 hIgG1 (antibody, V domains shown)", "VH": "EVQLQQSGPELVKPGAAVKISCKTSGYTFTDYTMHWVRQSHGKSLEWIGGIHPNNGGTGYNQKLRGKATLTVDKSSSTAYMELRSLTSDDSAVYYCARGRESDGWFTYWGQGTLVTFSA", "VL": "DVHMTQTTSSLSASLGDRVTITCSASQGIGNSLNWYQQQPDGTVKLLIYYTSRLHSGVPSRFSGSGSGTDYSLTISNLEPEDLATYYCQQYSRFPPTFGGGTKLEIK", "notes": "chimeric, hIgG1"}, "B4": {"name": "xi94B10A8 hIgG1 (antibody, V domains shown)", "VH": "QVQLQQTGAELVKPGASVKMSCKASGYTFTGYIIHWIKQRPGQGLEWIGAIYPGNGDTSYNQKIKGRATLTADKSSTTAYMQLSSLTSEDSAVYYCARGDYGNPAWFAYWGQGTLVTVSA", "VL": "DVVLTQSPATLSVTPGDRVSLSCRASQSISNYLYWYQQKAHESPRLLIKFASQSISGIPSRFRGSGSGTDFTLSINSVETEDFGMYFCQQSNKWPLTFGAGTKLELK", "notes": "chimeric, hIgG1"}, "B5": {"name": "xi78D1B10 hIgG1 (antibody, V domains shown)", "VH": "QVQLQQPGADLVKPGASVKLSCKASGFTFTSYIIHWVKQTPGQGLEWIGAIYPGNGDTSYIQKFKGRATLTADKSSTTAYMQLGGLTSEDSAVYYCARGTYGSSAWFVYWGQGTLVTVSA", "VL": "B4 VL with V2I, R18S, Y32N, A40S, F50Y, K93S", "notes": "chimeric, hIgG1"}, "B6": {"name": "91C9F1.p1.z1 hIgG1 (antibody, V domains shown)", "VH": "QVQLVQSGAEVKKPGSSVKVSCKASGFFFTEYIIHWVRQAPGQGLEWMGGIIPNNDVTNYKQNFRGRVTITADESTSTAYMELSSLRSEDTAVYYCARWRNAYYSAMDSWGQGTTVTVSS", "VL": "DIQMTQSPSSLSASVGDRVTITCTASQDVGTAVAWYQQKPGKVPKLLIYWASTRHTGVPSRFSGSGSGTDFTLTISSLQPEDVATYYCQQYRTSPLTFGGGTKVEIK", "notes": "humanized hIgG1"}}, "note": "Residue numbers refer to the chain shown, from its start.", "data": [{"molecular_target": "T1, human SLC34A2 (human, UniProt O95436 1-690)", "T1 construct": "whole, on cells; also called human solute carrier 34 A2; NaPi2b", "T1 sequence (looked up)": "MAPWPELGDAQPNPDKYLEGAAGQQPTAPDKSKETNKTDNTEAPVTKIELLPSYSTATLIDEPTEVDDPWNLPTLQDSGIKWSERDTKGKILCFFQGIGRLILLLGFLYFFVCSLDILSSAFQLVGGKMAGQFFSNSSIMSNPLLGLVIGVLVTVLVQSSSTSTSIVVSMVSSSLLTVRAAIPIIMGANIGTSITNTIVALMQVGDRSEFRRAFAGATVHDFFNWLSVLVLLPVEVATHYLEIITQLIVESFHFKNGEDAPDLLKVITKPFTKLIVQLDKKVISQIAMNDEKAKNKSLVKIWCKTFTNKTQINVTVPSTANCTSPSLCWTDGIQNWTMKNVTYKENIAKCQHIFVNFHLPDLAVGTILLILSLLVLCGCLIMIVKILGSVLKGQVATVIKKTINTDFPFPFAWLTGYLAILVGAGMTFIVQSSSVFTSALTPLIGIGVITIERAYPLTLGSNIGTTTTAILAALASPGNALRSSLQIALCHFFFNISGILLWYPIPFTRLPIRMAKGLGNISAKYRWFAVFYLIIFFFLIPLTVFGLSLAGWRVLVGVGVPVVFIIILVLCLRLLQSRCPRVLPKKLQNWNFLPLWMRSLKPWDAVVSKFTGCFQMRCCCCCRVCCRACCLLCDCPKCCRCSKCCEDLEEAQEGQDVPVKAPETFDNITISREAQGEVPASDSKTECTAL", "assay": "FACS, RMG-1 cells", "protocol": "Based on the foregoing cell-based binding results, some of the chimeric antibodies were selected for further cell based binding on human SLC34A2 expressing cells using flow cytometry. RMG-1 cells were incubated with the selected chimeric antibodies (from 200 nM, 4 folds dilution, 8 points). After incubation at 4° C. for 60 minutes, the cells were washed with FACS buffer twice, then stained with fluorescent conjugated secondary antibody at 4° C. for 30 minutes. Afterwards the cells were washed twice and analyzed by flow cytometry.", "units": {"EC50": "nM", "Top (MFI)": "MFI"}, "values": [{"binder": "B1", "EC50": 9.11, "Top (MFI)": 9660}, {"binder": "B2", "EC50": 9.05, "Top (MFI)": 10000}, {"binder": "B3", "EC50": 1.7, "Top (MFI)": 9200}, {"binder": "B4", "EC50": 2.58, "Top (MFI)": 9370}, {"binder": "B5", "EC50": 2.1, "Top (MFI)": 9860}]}, {"molecular_target": "T1, human SLC34A2", "assay": "FACS, OVCAR3 cells", "protocol": "In this example, cell based binding of chimeric antibodies (hIgG1) prepared from the murine antibodies on human SLC34A2 expressing cells were assessed using flow cytometry.\n(§1) Briefly, OVCAR3 cells or HEK293 cells expressing human SLC34A2 were incubated with chimeric antibodies (from 200 nM, 4 folds dilution, 8 points). After incubation at 4° C. for 60 minutes, the cells were washed with FACS buffer twice, then stained with fluorescent conjugated secondary antibody at 4° C. for 30 minutes. After that the cells were washed twice and analyzed by flow cytometry.", "units": {"EC50": "nM", "Top (MFI)": "MFI"}, "values": [{"binder": "B1", "EC50": 5.43, "Top (MFI)": 27800}, {"binder": "B2", "EC50": 11, "Top (MFI)": 46200}, {"binder": "B3", "EC50": 2.12, "Top (MFI)": 27700}, {"binder": "B4", "EC50": 1.57, "Top (MFI)": 39600}, {"binder": "B5", "EC50": 2.52, "Top (MFI)": 27500}]}, {"molecular_target": "T1, human SLC34A2", "assay": "FACS, OVCAR3 cells", "remark": "another data set of the same source", "units": {"EC50": "nM", "Top (MFI)": "MFI"}, "values": [{"binder": "B6", "EC50": 3.78, "Top (MFI)": 34200}]}, {"molecular_target": "T1, human SLC34A2", "assay": "cell-based or functional assay", "units": {"ADCC reporter EC50": "nM", "ADCC reporter Top (MFI)": "MFI"}, "values": [{"binder": "B1", "ADCC reporter EC50": 5.1, "ADCC reporter Top (MFI)": 195000}, {"binder": "B2", "ADCC reporter EC50": 3.3, "ADCC reporter Top (MFI)": 382000}, {"binder": "B3", "ADCC reporter EC50": 2.7, "ADCC reporter Top (MFI)": 216000}, {"binder": "B4", "ADCC reporter EC50": 4, "ADCC reporter Top (MFI)": 486000}, {"binder": "B5", "ADCC reporter EC50": 2.6, "ADCC reporter Top (MFI)": 212000}]}, {"molecular_target": "T1, human SLC34A2", "assay": "cell-based or functional assay", "remark": "another data set of the same source", "units": {"cytotoxicity EC50": "nM", "cytotoxicity Inhibition %": "%"}, "values": [{"binder": "B1", "cytotoxicity EC50": 0.35, "cytotoxicity Inhibition %": 82.6}, {"binder": "B2", "cytotoxicity EC50": 0.85, "cytotoxicity Inhibition %": 83.6}, {"binder": "B3", "cytotoxicity EC50": 0.67, "cytotoxicity Inhibition %": 86.9}, {"binder": "B4", "cytotoxicity EC50": 0.7, "cytotoxicity Inhibition %": 97.5}, {"binder": "B5", "cytotoxicity EC50": 0.5, "cytotoxicity Inhibition %": 94}]}, {"molecular_target": "T1, human SLC34A2", "assay": "FACS, HEK293/human SLC34A2 cells", "protocol": "as §1", "units": {"EC50": "nM", "Top (MFI)": "MFI"}, "values": [{"binder": "B1", "EC50": 1.62, "Top (MFI)": 44900}, {"binder": "B2", "EC50": 2.48, "Top (MFI)": 106000}, {"binder": "B3", "EC50": 1.19, "Top (MFI)": 48000}, {"binder": "B4", "EC50": 1.17, "Top (MFI)": 91300}, {"binder": "B5", "EC50": 1.26, "Top (MFI)": 47700}]}, {"molecular_target": "T2, Rhesus SLC34A2 (Rhesus, UniProt F7HDA3 1-690)", "T2 construct": "whole, on cells", "T2 sequence": "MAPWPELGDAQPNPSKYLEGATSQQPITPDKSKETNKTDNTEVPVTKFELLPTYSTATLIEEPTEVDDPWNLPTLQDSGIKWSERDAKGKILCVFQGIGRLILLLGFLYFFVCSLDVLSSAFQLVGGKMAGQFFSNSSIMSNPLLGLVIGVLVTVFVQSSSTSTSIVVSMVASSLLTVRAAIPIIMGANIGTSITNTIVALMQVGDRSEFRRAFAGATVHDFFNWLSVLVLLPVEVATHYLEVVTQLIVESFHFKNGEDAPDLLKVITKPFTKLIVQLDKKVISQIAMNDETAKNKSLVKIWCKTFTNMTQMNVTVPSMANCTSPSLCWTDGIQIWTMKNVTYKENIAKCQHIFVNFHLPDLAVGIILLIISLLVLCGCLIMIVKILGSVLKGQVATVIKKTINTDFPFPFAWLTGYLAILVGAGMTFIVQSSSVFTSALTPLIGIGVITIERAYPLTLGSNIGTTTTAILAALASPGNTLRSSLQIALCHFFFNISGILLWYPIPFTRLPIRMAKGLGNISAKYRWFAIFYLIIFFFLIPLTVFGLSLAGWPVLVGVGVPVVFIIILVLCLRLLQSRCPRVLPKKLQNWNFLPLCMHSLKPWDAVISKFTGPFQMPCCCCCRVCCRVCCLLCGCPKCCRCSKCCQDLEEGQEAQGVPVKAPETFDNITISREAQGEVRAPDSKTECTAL", "assay": "FACS, HEK293/Rhesus SLC34A2 cells", "protocol": "Briefly, the Rhesus SLC34A2 expressing HEK293 engineering cells (HEK293/Rhesus_SLC34A2) were incubated with chimeric Abs (from 200 nM, 4 folds dilution, 8 points). After incubation at 4° C. for 60 minutes, the cells were washed with FACS buffer twice, then stained with fluorescent conjugated secondary antibody at 4° C. for 30 minutes. After that the cells were washed twice and analyzed by flow cytometry.", "units": {"EC50": "nM", "Top (MFI)": "MFI"}, "values": [{"binder": "B1", "EC50": 2.85, "Top (MFI)": 18300}, {"binder": "B2", "EC50": 2.38, "Top (MFI)": 18700}, {"binder": "B3", "EC50": 1.68, "Top (MFI)": 11600}, {"binder": "B4", "EC50": 2.24, "Top (MFI)": 13700}, {"binder": "B5", "EC50": 1.58, "Top (MFI)": 16000}]}, {"molecular_target": "T3, Cynomolgus SLC34A2 (Cynomolgus, UniProt A0A2K5UHY1 1-690)", "T3 construct": "whole, on cells; also called Cyno SLC34A2", "T3 sequence": "T2 sequence with P325H, I530V", "assay": "FACS, cells expressing Cynomolgus SLC34A2", "units": {"EC50": "nM", "Top (MFI)": "MFI"}, "values": [{"binder": "B1", "EC50": 7.66, "Top (MFI)": 4710}, {"binder": "B2", "EC50": 2.51, "Top (MFI)": 3580}, {"binder": "B3", "EC50": 88.3, "Top (MFI)": 2570}, {"binder": "B4", "EC50": 5.47, "Top (MFI)": 3150}, {"binder": "B5", "EC50": 1.5, "Top (MFI)": 4400}]}]}
